Source: publication PMC12868882, “Held out wings RNA binding activity in the cytoplasm during early spermatogenesis”

T1: HOW-STAR (STAR domain of Held out wings) (Drosophila melanogaster, UniProt O01367 72-266)
T1 sequence: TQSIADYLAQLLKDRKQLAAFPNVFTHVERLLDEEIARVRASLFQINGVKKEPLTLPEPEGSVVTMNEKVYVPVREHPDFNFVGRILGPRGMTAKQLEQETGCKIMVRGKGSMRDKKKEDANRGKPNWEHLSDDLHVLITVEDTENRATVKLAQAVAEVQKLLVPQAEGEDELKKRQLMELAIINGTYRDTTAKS


What was measured:
[1] = biological target: T1, HOW-STAR (STAR domain of Held out wings); assay: fluorescence anisotropy; apparent KD; RNA binding buffer: 20 mM Tris-HCl pH 7.5, 150 mM NaCl, 0.01% Triton X-100; 20 uL of 5 nM labelled RNA in about 60 uL; at least 45 min equilibration; temperature not stated; conditions: protein: recombinant; tags: His6-GST removed by 3C protease; chain copies: 2; label: 3' 6-carboxyfluorescein
[2] = biological target: T1, HOW-STAR (STAR domain of Held out wings); assay: fluorescence anisotropy; apparent KD; text: did not bind in the low nanomolar range; RNA binding buffer: 20 mM Tris-HCl pH 7.5, 150 mM NaCl, 0.01% Triton X-100; 20 uL of 5 nM labelled RNA in about 60 uL; at least 45 min equilibration; temperature not stated; conditions: protein: recombinant; tags: His6-GST removed by 3C protease; chain copies: 2; label: 3' 6-carboxyfluorescein

Binder | Kd [1] | Kd [2]
AGCAGCUGACAAUU (ssRNA) [Hipk-RA A8G] | 85.3 nM | –
GUUGGCGUGUUUU (ssRNA) [Jvl] | – | 803 nM
AGCACCUAACAAUU (ssRNA) [Hipk-RA G5C] | 20.4 nM | –
AGCAUCUAACAAUU (ssRNA) [Hipk-RA G5U] | 12.4 nM | –
ACACACUAACUCGUAACUAUG (ssRNA) [Lola + half-site] | 9.25 nM | –
ACACACUAACUCGU (ssRNA) [Lola] | 6.05 nM | –
AGCAACUAACAAUU (ssRNA) [Hipk-RA G5A] | 4.65 nM | –
UACAACUAACAACUAACAGAU (ssRNA) [Hipk double motif] | 7.46 nM | –
AGCAGCUAACAAUU (ssRNA) [Hipk-RA] | 10.1 nM | –
